The target in data set [1] is SP1 (Homo sapiens, UniProt P08047 2-785). Briefly: EMSA. On the technique in general: In EMSA bound probe runs differently from free probe, usually more slowly.
Data set [2] addresses T1, APOBEC2 (Mus musculus, UniProt Q9WV35 1-224).
T1 sequence: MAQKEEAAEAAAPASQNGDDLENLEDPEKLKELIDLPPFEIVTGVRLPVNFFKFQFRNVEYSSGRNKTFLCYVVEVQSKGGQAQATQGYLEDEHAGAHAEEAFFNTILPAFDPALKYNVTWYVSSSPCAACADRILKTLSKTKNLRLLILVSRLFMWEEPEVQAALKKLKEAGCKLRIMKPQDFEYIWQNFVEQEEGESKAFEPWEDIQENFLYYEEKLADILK
Briefly: MST.

The target in data set [3] is T1, APOBEC2. Briefly: MST. The source holds these as a separate data set.

SP1, sequence (P08047 2-785): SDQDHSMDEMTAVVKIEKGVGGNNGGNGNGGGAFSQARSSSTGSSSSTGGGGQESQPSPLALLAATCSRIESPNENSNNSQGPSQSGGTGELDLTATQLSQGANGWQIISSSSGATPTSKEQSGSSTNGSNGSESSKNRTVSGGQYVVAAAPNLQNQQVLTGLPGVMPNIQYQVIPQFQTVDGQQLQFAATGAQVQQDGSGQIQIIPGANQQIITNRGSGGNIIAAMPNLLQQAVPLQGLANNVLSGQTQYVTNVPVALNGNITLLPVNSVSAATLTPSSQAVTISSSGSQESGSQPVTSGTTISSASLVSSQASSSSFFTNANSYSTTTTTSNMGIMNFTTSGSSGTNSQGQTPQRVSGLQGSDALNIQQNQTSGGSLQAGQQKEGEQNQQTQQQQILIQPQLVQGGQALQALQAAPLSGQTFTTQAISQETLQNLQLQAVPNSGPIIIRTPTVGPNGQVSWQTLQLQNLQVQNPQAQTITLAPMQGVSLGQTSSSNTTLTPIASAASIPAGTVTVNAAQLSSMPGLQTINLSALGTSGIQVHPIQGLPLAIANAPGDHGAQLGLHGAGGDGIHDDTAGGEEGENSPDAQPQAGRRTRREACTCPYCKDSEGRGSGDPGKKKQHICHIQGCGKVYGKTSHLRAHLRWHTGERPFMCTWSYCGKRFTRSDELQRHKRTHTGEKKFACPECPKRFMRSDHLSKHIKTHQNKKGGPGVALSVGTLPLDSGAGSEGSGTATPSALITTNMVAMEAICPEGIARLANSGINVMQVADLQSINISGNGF

B1: SP/KLF motif dsDNA (dsDNA)
DNA 1: GGCGGCGCGGCCCCGCCCCCTCCTCCGGC
DNA 2: GCCGGAGGAGGGGGCGGGGCCGCGCCGCC
As to B1, the binding result in data set [1] is on record as “binds”. Further, binding in data set [2] was characterised by a dissociation constant (Kd) of 709 ± 186 nM.

B2: A-tract motif dsDNA (dsDNA)
DNA 1: TCTCAAGAAAAAAAAAAAAAGAC
DNA 2: GTCTTTTTTTTTTTTTCTTGAGA
For B2, the binding result in data set [3] is “no binding”.

For the origin of these results see publication doi:10.1101/2020.07.29.223594.
